Consider 27 molecules from PMC10786891, “Massively parallel profiling of RNA-targeting CRISPR-Cas13d”.

Sequences and labels used below:
T1: EsCas13d, nuclease-dead (Eubacterium siraeum, UniProt B0MS50, R295A;H300A;R849A;H854A)
T1 sequence: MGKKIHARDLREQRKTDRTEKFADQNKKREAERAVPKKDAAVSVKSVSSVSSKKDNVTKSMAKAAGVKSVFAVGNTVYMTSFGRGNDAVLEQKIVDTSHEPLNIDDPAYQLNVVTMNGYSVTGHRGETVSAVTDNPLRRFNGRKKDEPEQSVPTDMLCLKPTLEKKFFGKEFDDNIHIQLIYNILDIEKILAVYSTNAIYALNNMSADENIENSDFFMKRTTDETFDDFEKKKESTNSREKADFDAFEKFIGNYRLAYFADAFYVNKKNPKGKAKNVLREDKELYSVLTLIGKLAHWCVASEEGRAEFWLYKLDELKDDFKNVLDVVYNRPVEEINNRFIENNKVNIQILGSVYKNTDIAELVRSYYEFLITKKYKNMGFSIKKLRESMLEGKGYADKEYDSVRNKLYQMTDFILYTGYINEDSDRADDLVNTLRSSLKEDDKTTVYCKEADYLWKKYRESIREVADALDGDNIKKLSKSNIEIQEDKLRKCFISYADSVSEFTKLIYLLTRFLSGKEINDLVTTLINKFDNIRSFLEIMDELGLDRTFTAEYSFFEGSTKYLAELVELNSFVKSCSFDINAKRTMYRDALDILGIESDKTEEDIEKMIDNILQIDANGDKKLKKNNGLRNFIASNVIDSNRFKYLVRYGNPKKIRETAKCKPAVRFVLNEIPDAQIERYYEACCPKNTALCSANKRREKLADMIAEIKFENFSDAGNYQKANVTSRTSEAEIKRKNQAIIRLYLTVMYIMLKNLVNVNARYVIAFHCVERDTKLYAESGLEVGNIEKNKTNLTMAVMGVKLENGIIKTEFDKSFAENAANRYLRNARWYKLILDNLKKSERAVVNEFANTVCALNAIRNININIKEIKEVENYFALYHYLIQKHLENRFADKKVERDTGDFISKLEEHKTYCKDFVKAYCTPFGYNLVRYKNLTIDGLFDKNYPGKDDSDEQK

B1: target 2 MT 5'PFS AAG 3'PFS UAU (mixed)
RNA 1: CACCCGUGCAAAAUUGCAGGGGUCUAAAACCUUCUCCAAAUUGUUUCAUCCU
RNA 2: GGGAAUGGAUCCACAUCUACGAAUUCAAGAGGAUGAAACAAUUUGGAGAAGUAUAGAUCGGAAGAGCACACGU
B2: target 2 MT 5'PFS CAA 3'PFS AGC (mixed)
RNA 1: CACCCGUGCAAAAUUGCAGGGGUCUAAAACCUUCUCCAAAUUGUUUCAUCCU
RNA 2: GGGAAUGGAUCCACAUCUACGAAUUCCAAAGGAUGAAACAAUUUGGAGAAGAGCAGAUCGGAAGAGCACACGU
B3: target 2 MT 5'PFS GCU 3'PFS CCA (mixed)
RNA 1: CACCCGUGCAAAAUUGCAGGGGUCUAAAACCUUCUCCAAAUUGUUUCAUCCU
RNA 2: GGGAAUGGAUCCACAUCUACGAAUUCGCUAGGAUGAAACAAUUUGGAGAAGCCAAGAUCGGAAGAGCACACGU
B4: target 2 MT 5'PFS ACG 3'PFS ACC (mixed)
RNA 1: CACCCGUGCAAAAUUGCAGGGGUCUAAAACCUUCUCCAAAUUGUUUCAUCCU
RNA 2: GGGAAUGGAUCCACAUCUACGAAUUCACGAGGAUGAAACAAUUUGGAGAAGACCAGAUCGGAAGAGCACACGU
B5: target 2 MT 5'PFS GGC 3'PFS AAA (mixed)
RNA 1: CACCCGUGCAAAAUUGCAGGGGUCUAAAACCUUCUCCAAAUUGUUUCAUCCU
RNA 2: GGGAAUGGAUCCACAUCUACGAAUUCGGCAGGAUGAAACAAUUUGGAGAAGAAAAGAUCGGAAGAGCACACGU
B6: target 2 MT 5'PFS GUA 3'PFS GAA (mixed)
RNA 1: CACCCGUGCAAAAUUGCAGGGGUCUAAAACCUUCUCCAAAUUGUUUCAUCCU
RNA 2: GGGAAUGGAUCCACAUCUACGAAUUCGUAAGGAUGAAACAAUUUGGAGAAGGAAAGAUCGGAAGAGCACACGU
B7: target 2 MT 5'PFS CUU 3'PFS AUC (mixed)
RNA 1: CACCCGUGCAAAAUUGCAGGGGUCUAAAACCUUCUCCAAAUUGUUUCAUCCU
RNA 2: GGGAAUGGAUCCACAUCUACGAAUUCCUUAGGAUGAAACAAUUUGGAGAAGAUCAGAUCGGAAGAGCACACGU
B8: target 2 MT 5'PFS AAG 3'PFS UAA (mixed)
RNA 1: CACCCGUGCAAAAUUGCAGGGGUCUAAAACCUUCUCCAAAUUGUUUCAUCCU
RNA 2: GGGAAUGGAUCCACAUCUACGAAUUCAAGAGGAUGAAACAAUUUGGAGAAGUAAAGAUCGGAAGAGCACACGU
B9: target 2 MT 5'PFS GGC 3'PFS AAC (mixed)
RNA 1: CACCCGUGCAAAAUUGCAGGGGUCUAAAACCUUCUCCAAAUUGUUUCAUCCU
RNA 2: GGGAAUGGAUCCACAUCUACGAAUUCGGCAGGAUGAAACAAUUUGGAGAAGAACAGAUCGGAAGAGCACACGU
B10: target 2 MT 5'PFS ACU 3'PFS UCC (mixed)
RNA 1: CACCCGUGCAAAAUUGCAGGGGUCUAAAACCUUCUCCAAAUUGUUUCAUCCU
RNA 2: GGGAAUGGAUCCACAUCUACGAAUUCACUAGGAUGAAACAAUUUGGAGAAGUCCAGAUCGGAAGAGCACACGU
B11: target 2 MT 5'PFS CUU 3'PFS AUG (mixed)
RNA 1: CACCCGUGCAAAAUUGCAGGGGUCUAAAACCUUCUCCAAAUUGUUUCAUCCU
RNA 2: GGGAAUGGAUCCACAUCUACGAAUUCCUUAGGAUGAAACAAUUUGGAGAAGAUGAGAUCGGAAGAGCACACGU
B12: target 2 MT 5'PFS GUA 3'PFS GAC (mixed)
RNA 1: CACCCGUGCAAAAUUGCAGGGGUCUAAAACCUUCUCCAAAUUGUUUCAUCCU
RNA 2: GGGAAUGGAUCCACAUCUACGAAUUCGUAAGGAUGAAACAAUUUGGAGAAGGACAGAUCGGAAGAGCACACGU
B13: target 2 MT 5'PFS GCU 3'PFS AGG (mixed)
RNA 1: CACCCGUGCAAAAUUGCAGGGGUCUAAAACCUUCUCCAAAUUGUUUCAUCCU
RNA 2: GGGAAUGGAUCCACAUCUACGAAUUCGCUAGGAUGAAACAAUUUGGAGAAGAGGAGAUCGGAAGAGCACACGU
B14: target 2 MT 5'PFS UCG 3'PFS CUC (mixed)
RNA 1: CACCCGUGCAAAAUUGCAGGGGUCUAAAACCUUCUCCAAAUUGUUUCAUCCU
RNA 2: GGGAAUGGAUCCACAUCUACGAAUUCUCGAGGAUGAAACAAUUUGGAGAAGCUCAGAUCGGAAGAGCACACGU
B15: target 2 MT 5'PFS ACU 3'PFS UCA (mixed)
RNA 1: CACCCGUGCAAAAUUGCAGGGGUCUAAAACCUUCUCCAAAUUGUUUCAUCCU
RNA 2: GGGAAUGGAUCCACAUCUACGAAUUCACUAGGAUGAAACAAUUUGGAGAAGUCAAGAUCGGAAGAGCACACGU
B16: target 2 MT 5'PFS ACU 3'PFS UCG (mixed)
RNA 1: CACCCGUGCAAAAUUGCAGGGGUCUAAAACCUUCUCCAAAUUGUUUCAUCCU
RNA 2: GGGAAUGGAUCCACAUCUACGAAUUCACUAGGAUGAAACAAUUUGGAGAAGUCGAGAUCGGAAGAGCACACGU
B17: target 2 MT 5'PFS ACU 3'PFS UCU (mixed)
RNA 1: CACCCGUGCAAAAUUGCAGGGGUCUAAAACCUUCUCCAAAUUGUUUCAUCCU
RNA 2: GGGAAUGGAUCCACAUCUACGAAUUCACUAGGAUGAAACAAUUUGGAGAAGUCUAGAUCGGAAGAGCACACGU
B18: target 2 MT 5'PFS GCU 3'PFS AGA (mixed)
RNA 1: CACCCGUGCAAAAUUGCAGGGGUCUAAAACCUUCUCCAAAUUGUUUCAUCCU
RNA 2: GGGAAUGGAUCCACAUCUACGAAUUCGCUAGGAUGAAACAAUUUGGAGAAGAGAAGAUCGGAAGAGCACACGU
B19: target 2 MT 5'PFS AUU 3'PFS UGC (mixed)
RNA 1: CACCCGUGCAAAAUUGCAGGGGUCUAAAACCUUCUCCAAAUUGUUUCAUCCU
RNA 2: GGGAAUGGAUCCACAUCUACGAAUUCAUUAGGAUGAAACAAUUUGGAGAAGUGCAGAUCGGAAGAGCACACGU
B20: target 2 MT 5'PFS GUA 3'PFS UAU (mixed)
RNA 1: CACCCGUGCAAAAUUGCAGGGGUCUAAAACCUUCUCCAAAUUGUUUCAUCCU
RNA 2: GGGAAUGGAUCCACAUCUACGAAUUCGUAAGGAUGAAACAAUUUGGAGAAGUAUAGAUCGGAAGAGCACACGU
B21: target 2 MT 5'PFS UUU 3'PFS ACU (mixed)
RNA 1: CACCCGUGCAAAAUUGCAGGGGUCUAAAACCUUCUCCAAAUUGUUUCAUCCU
RNA 2: GGGAAUGGAUCCACAUCUACGAAUUCUUUAGGAUGAAACAAUUUGGAGAAGACUAGAUCGGAAGAGCACACGU
B22: target 2 MT 5'PFS UCG 3'PFS CUG (mixed)
RNA 1: CACCCGUGCAAAAUUGCAGGGGUCUAAAACCUUCUCCAAAUUGUUUCAUCCU
RNA 2: GGGAAUGGAUCCACAUCUACGAAUUCUCGAGGAUGAAACAAUUUGGAGAAGCUGAGAUCGGAAGAGCACACGU
B23: target 2 MT 5'PFS ACG 3'PFS ACG (mixed)
RNA 1: CACCCGUGCAAAAUUGCAGGGGUCUAAAACCUUCUCCAAAUUGUUUCAUCCU
RNA 2: GGGAAUGGAUCCACAUCUACGAAUUCACGAGGAUGAAACAAUUUGGAGAAGACGAGAUCGGAAGAGCACACGU
B24: target 2 MT 5'PFS GGC 3'PFS AAG (mixed)
RNA 1: CACCCGUGCAAAAUUGCAGGGGUCUAAAACCUUCUCCAAAUUGUUUCAUCCU
RNA 2: GGGAAUGGAUCCACAUCUACGAAUUCGGCAGGAUGAAACAAUUUGGAGAAGAAGAGAUCGGAAGAGCACACGU
B25: target 2 MT 5'PFS ACG 3'PFS ACA (mixed)
RNA 1: CACCCGUGCAAAAUUGCAGGGGUCUAAAACCUUCUCCAAAUUGUUUCAUCCU
RNA 2: GGGAAUGGAUCCACAUCUACGAAUUCACGAGGAUGAAACAAUUUGGAGAAGACAAGAUCGGAAGAGCACACGU
B26: target 1 insA 3' of 17 (mixed)
RNA 1: CACCCGUGCAAAAAUGCAGGGGUCUAAAACUGAGCGGAUAACCUCUCUAUGG
RNA 2: GGGAAUGGAUCCACAUCUACGAAUUCGUACCAUAGAAGAGGUUAUCCGCUCACCGAGAUCGGAAGAGCACACGU
B27: target 1 A16U,G17U (mixed)
RNA 1: CACCCGUGCAAAAAUGCAGGGGUCUAAAACUGAGCGGAUAACCUCUCUAUGG
RNA 2: GGGAAUGGAUCCACAUCUACGAAUUCGUACCAUAUUGAGGUUAUCCGCUCACCGAGAUCGGAAGAGCACACGU

The data set deals with T1, EsCas13d, nuclease-dead. Kind of data set: crRNA (strand 1, pre-loaded); Mg2+; 40 mM Tris-HCl pH 7.5, 150 mM NaCl, 6 mM MgCl2, 1 mM DTT, 0.1% Tween-20, 0.2 mg/ml BSA; 25 C; 10 min per concentration, then washed. The note with it: tags: His6-TwinStrep-SUMO cleaved; N-terminal SNAP kept (SNAP-Surface 488); label: 3' end held by stalled T7 RNA polymerase.
As for B1, the affinity, expressed as Kd, was 3.6 ± 0.6 nM. In the case of B2, the affinity, expressed as Kd, was 7.6 ± 2.2 nM.

In the case of B3, the affinity, expressed as Kd, was 25 ± 12 nM. For B4, the Kd (usually the free concentration of one partner at which half of the binding sites on the other are occupied at equilibrium, for simple one-to-one binding) is approximately 20 nM. Molecule B5 gave an equilibrium dissociation constant (Kd) of 8.9 ± 1.5 nM. To B6 belongs 6.7 ± 2.4 nM. For the molecule B7, the Kd worked out at 5.1 ± 0.9 nM. For the molecule B8, the dissociation constant Kd was 3.7 ± 0.7 nM. B9 registered a Kd of 11.7 ± 1.4 nM.

Regarding B10, the Kd came to 14.3 ± 3.5 nM. B11 came in with a Kd of 4.1 ± 0.4 nM.

Molecule B12 registered a Kd of 7.9 ± 1.4 nM. B13 yielded an equilibrium dissociation constant (Kd) of 7.9 ± 0.8 nM. Next, B14: 23 ± 6 nM.

Take B15: the Kd stood at 7.3 ± 1.7 nM. Next, B16: 6.7 ± 1 nM; B17: 8.4 ± 0.9 nM; B18: 7.3 ± 2.1 nM. With B19, the Kd turned out to be 9.7 ± 1.4 nM. The molecule B20 displayed a Kd of 7.8 ± 0.7 nM. As to B21, the affinity, expressed as Kd, was 9.1 ± 0.8 nM. Next, B22: 40 ± 9 nM; B23: 15 ± 4 nM. As for B24, the Kd is 13.1 ± 2 nM. Molecule B25 returned a Kd of 9.7 ± 2.4 nM.

Turning to B26, the Kd stood at 11.8 ± 1.3 nM. The molecule B27 displayed a Kd of 22 ± 2.1 nM.
